According to patent US20150353597A1 (TEXAS A AND M UNIVERSITY SYSTEM, published 2015):

How the values were obtained:
ELP-N (construct 5) [1] = target: T1, ELP-N (construct 5); assay: co-precipitation with ELP-N by ammonium sulfate
T1 construct: also called ELP intein N-fragment

ELP-N (construct 5) [2] = target: T1, ELP-N (construct 5); assay: lysates mixed 10 min at room temperature, 0.4 M ammonium sulfate precipitation of the ELP complex, SDS-PAGE
NC1A-CBD (construct 12) [3] = target: T2, NC1A-CBD (construct 12); assay: capture from E. coli lysate on chitin-bound NC1A-CBD, 0.5 mM ZnCl2, SDS-PAGE densitometry
T2 construct: free in solution in the kinetic assays
Description: Sample purification via SIRP (FIG. 14): A disposable column containing 150 μL chitin resin was loaded with soluble lysate containing NC1A-CBD in Buffer A (0.5 M NaCl, 10 mM Tris-HCl, pH 8.0) and washed 4 times with 10 column volumes (CV) of Buffer B (0.5 M NaCl, 50 mM NaPOi, pH 6.0). All loading and washing steps were performed in batch phase. The last wash was supplemented with 0.5 mM ZnCl₂. […] The column was subsequently washed with 10 CV of Buffer B with ZnCl₂ (0.5 mM) and finally incubated in 4 CV of Buffer A containing 50 mM DTT at room temperature for 30 min or at 6° C. for 3 h.

NC1A-CBD (construct 12) [4] = target: T2, NC1A-CBD (construct 12); assay: cell-based or functional assay

Binder	binding result (ELP-N (construct 5) [1])	binding result (ELP-N (construct 5) [2])	molar ratio of bound C*-POI to NC1A-CBD (NC1A-CBD (construct 12) [3]) [molar ratio]	percent of PTDH cleaved from C*-PTDH within 30 seconds, 1:1 molar ratio, 50 mM DTT, 22 C and 6 C (NC1A-CBD (construct 12) [4]) [%]
C*-CAT (construct 9) (other, also called C*-chloramphenicol acetyl transferase) MIKIATRKYLGKQNVYGIGVERDHNFALKNGFIASNCFNASMEKKITGYTTVDISQWHRKEHFEAFQSVAQCTYNQTVQLDITAFLKTVKKNKHKFYPAFIHILARLMNAHPEFRMAMKDGELVIWDSVHPCYTVFHEQTETFSSLWSEYHDDFRQFLHIYSQDVACYGENLAYFPKGFIENMFFVSANPWVSFTSFDLNVANMDNFFAPVFTMGKYYTQGDKVLMPLAIQVHHAVCDGFHVGRMLNELQQYCDEWQGGALEHHHHHH	binds	–	–	–
C*-PTDH (construct 6) (other, also called NpuDnaE C-fragment Asp118Gly fused to phosphite dehydrogenase) MIKIATRKYLGKQNVYGIGVERDHNFALKNGFIASNCFNASMLPKLVITHRVHEEILQLLAPHCELITNQTDSTLTREEILRRCRDAQAMMAFMPDRVDADFLQACPELRVIGCALKGFDNFDVDACTARGVWLTFVPDLLTVPTAELAIGLAVGLGRHLRAADAFVRSGKFRGWQPRFYGTGLDNATVGFLGMGAIGLAMADRLQGWGATLQYHARKALDTQTEQRLGLRQVACSELFASSDFILLALPLNADTLHLVNAELLALVRPGALLVNPCRGSVVDEAAVLAALERGQLGGYAADVFEMEDWARADRPQQIDPALLAHPNTLFTPHIGSAVRAVRLEIERCAAQNILQALAGERPINAVNRLPKANPAADLEHHHHHH	–	binds	0.35	~50
